Test results as given in patent US20250270315A1.

What was measured:
[1] = target: human SIRPα v2 expressed on cells (CHOK1 stable line KYinno KC-1720) (human) (UniProt P78324); test: FACS, CHOK1-hSIRPα v2 cells
[2] = target: cyno SIRPα stably expressed on CHOK1 cells (cyno); test: FACS, CHOK1-Cyno SIRPα cells
[3] = target: T1, C57BL/6 mouse SIRPα ECD recombinant protein (6×His tagged) (C57BL/6 mouse) (UniProt P97797); test: ELISA, C57BL/6 mouse SIRPα ECD
T1 sequence (looked up): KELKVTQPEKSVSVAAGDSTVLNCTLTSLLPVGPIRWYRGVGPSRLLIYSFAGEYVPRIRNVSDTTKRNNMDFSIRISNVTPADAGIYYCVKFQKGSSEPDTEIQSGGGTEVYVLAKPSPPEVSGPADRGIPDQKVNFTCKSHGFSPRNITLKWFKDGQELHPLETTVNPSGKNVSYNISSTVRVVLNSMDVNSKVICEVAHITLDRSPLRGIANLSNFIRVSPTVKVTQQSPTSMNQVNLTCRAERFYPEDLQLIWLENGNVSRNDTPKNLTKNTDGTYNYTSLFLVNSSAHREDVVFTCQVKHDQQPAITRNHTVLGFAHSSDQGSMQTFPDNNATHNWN

[4] = target: human SIRPα v2 expressed on cells (CHOK1 stable line KYinno KC-1720) (human) (UniProt P78324); test: competitive FACS, mFc-CD47 ECD on CHOK1-human SIRPα v2 cells

- EC50 [1]: 0.85 nM
- TOP MFI [1]: 18700 MFI
- EC50 [2]: 0.72 nM
- TOP MFI [2]: 14900 MFI
- OD450 at 100 nM [3]: 0.23 OD450
- IC50 [4]: 5.61 nM
- TOP blocking (%) [4]: 98.7%
B1: hu1H9G4 (antibody, V domains shown)
VH: QVQLVQSGAEVKKPGASVKVSCKASGYTFTSYWITWVKQAPGQGLEWIGDIYPGSGSTNHIEKFKSKATLTVDTSISTAYMELSRLRSDDTAVYYCATGYGSSYGYFDYWGQGTLVTVSS
VL: DIQMTQSPSSLSASVGDRVTITCRASENIYSYLAWYQQKPGKAPKLLIYTAKTLAEGVPSRFSGSGSGTDFTLTISSLQPEDFATYYCQHQYGPPFTFGQGTKLELK
